Residue numbers refer to the chain shown, from its start. In names and notes the source's numbering stands. Values belong to the binder of their own block, whether it stands above or below them.
Molecular target: human DLL3 on DLL3-expressing tumor cell lines (human) (UniProt Q9NYJ7)
Assay: cell-based or functional assay

Sequence of human DLL3 on DLL3-expressing tumor cell lines (human) (Q9NYJ7 27-618 limits assumed): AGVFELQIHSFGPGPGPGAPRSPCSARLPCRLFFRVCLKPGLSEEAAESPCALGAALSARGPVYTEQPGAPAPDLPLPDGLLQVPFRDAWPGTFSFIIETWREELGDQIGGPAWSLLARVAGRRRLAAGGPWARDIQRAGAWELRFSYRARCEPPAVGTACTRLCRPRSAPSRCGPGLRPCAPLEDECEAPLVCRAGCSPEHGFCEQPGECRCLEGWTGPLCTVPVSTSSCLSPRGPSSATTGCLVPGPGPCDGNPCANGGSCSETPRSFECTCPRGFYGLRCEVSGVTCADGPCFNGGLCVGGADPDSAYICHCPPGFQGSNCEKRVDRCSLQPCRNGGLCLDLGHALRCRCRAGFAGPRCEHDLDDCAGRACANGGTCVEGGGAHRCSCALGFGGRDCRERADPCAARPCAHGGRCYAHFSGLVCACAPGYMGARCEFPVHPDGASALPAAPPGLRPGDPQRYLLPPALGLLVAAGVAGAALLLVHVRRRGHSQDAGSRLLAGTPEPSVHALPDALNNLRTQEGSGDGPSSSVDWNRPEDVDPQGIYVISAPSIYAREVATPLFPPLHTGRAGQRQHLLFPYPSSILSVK

B2: 2E05-M106Q anti-DLL3 trispecific protein (protein, not shown: large carriers)
chain: EVQLVESGGGLVQPGGSLTLSCVASGSPSSINAYGWYRRAPGKQRELVAGISSDGSKVYSDSVKGRFTISRDNAKNSVYLQMNSLRAEDTAVYYCYYFRTVSGSSQSYWGQGTLVTVSS
DMS-153 TDCC EC50: 0.041 nM
fold TDCC potency over the parental molecule DH43: 6.6 fold

B4: 2E05-M106Y anti-DLL3 trispecific protein (protein, not shown: large carriers)
chain: B2 chain with Q106Y
DMS-153 TDCC EC50: 0.063 nM

Now from value to binder:

DMS-153 TDCC EC50: 0.049 nM
B1: 2F11 anti-DLL3 trispecific protein (protein, not shown: large carriers)
chain: B2 chain with P28V, Y34M, S60K, Q106M, S107G

DMS-153 TDCC EC50: 0.054 nM
fold TDCC potency over the parental molecule DH6: 4.4 fold
B3: 4D09-M34L anti-DLL3 trispecific protein (protein, not shown: large carriers)
chain: EVQLVESGGGLVQPGGSLTLSCAASGSSVKFLSLAWYRQAPGKKRELVAGISADGSTDYILSVKGRFTISRDNAKNSVYLQMNSLRAEDTAVYYCYAYEWTTRYTYWGQGTLVTVSS

DMS-153 TDCC EC50: 0.13 nM
B5: 4H11-M34L anti-DLL3 trispecific protein (protein, not shown: large carriers)
chain: B3 chain with K30S, F31R, A53V, L61D, E99R, Y104L

From patent US20240141072A1
